Measurements: PMC3979677, “Low-Resolution Structure of the Full-Length Barley (Hordeum vulgare) SGT1 Protein in Solution, Obtained Using Small-Angle X-Ray Scattering” (PLoS ONE, 2014)

Tests used:
[1] = molecular target: the molecule itself; assay: SAXS; full-length SGT1 in solution, 3.46, 3.41 and 2.71 mg/mL in 50 mM Tris/HCl pH 7.5, 5 mM DTT with 0, 0.5 or 1 M NaCl, 10°C; SVD and MCR-ALS analysis; dimer to monomers
[2] = molecular target: the molecule itself; assay: SAXS; TPR domain in solution, 2 mg/ml in 50 mM Tris HCl pH 7.5, 5 mM DTT with 0, 100, 200, 400, 600 or 800 mM KCl, 15°C; SVD and MCR-ALS analysis; dimer to monomers

Row | Protein | stoichiometry N [1] | stoichiometry N [2]
1 | full-length barley (Hordeum vulgare) SGT1 protein (natural protein, Hordeum vulgare (barley), UniProt Q8W516 1-373, looked up, SGT1 (suppressor of the G2 allele of skp1), Hordeum vulgare, full length cDNA; 373 amino acids in total; Cloned in pET151-D TOPO; His-TEV site cleaved with His-TEV protease (Ser219Val); also called barley SGT1; HvSgt1; source: E. coli BL21 DE3 Codon Plus, purified (HisTrap Ni-NTA, Superdex 200, TEV cleavage, HisTrap, MonoQ)) MAAAAASDLESKAKEAFVDDDFELAAELYTQAIEAGPATAELYADRAQAHIKLGSYTEAVADANKAIELDPSMHKAYLRKGSACIKLEEYQTAKAALEVGSSYASGDSRFTRLMKECDDRIAEEASQAPVKNAAAAVAPATSSGATTVVTEAEDQDGENMENAQPTVEVPSKPKYRHDYYNTPTEVVLTIFAKGVPADSVVVDFGEQMLSVSIELPGEEPYHFQPRLFSKIVPDKCKYTVLSTKVEIRLAKAEPVTWTSLDYTGKPKAPQKINVPAESAQRPSYPSSKSKKDWDKLEAEVKKQEKDEKLDGDAALNKFFREIYSDADEDMRRAMMKSFVESNGTVLSTNWKDVGKKTVEGSPPDGMELKKWEY | 2 | –
2 | TPR domain from Hordeum vulgare SGT1 (6-124) (domain or fragment, Hordeum vulgare (barley), UniProt Q8W516 6-124, looked up, SGT1, Hordeum vulgare, tetratricopeptide repeats (TPR) domain, residues 6-124; Cloned in pETM11 (NcoI/EcoRI) from pET151-HvSgt1; his-tag cleaved with TEV protease; source: E. coli BL21(DE3) Codon Plus, purified (HisTrap, TEV cleavage, HisTrap, Superdex 200)) ASDLESKAKEAFVDDDFELAAELYTQAIEAGPATAELYADRAQAHIKLGSYTEAVADANKAIELDPSMHKAYLRKGSACIKLEEYQTAKAALEVGSSYASGDSRFTRLMKECDDRIAEE | – | 2
